From PMC4729829, “BAP1/ASXL1 recruitment and activation for H2A deubiquitination” (Nature Communications, 2016)
One block for each substance: values may come before it.

Tests used:
[1] = target: Nucleosome core particle mono-ubiquitinated at H2A K119 with N-terminally TAMRA-labeled ubiquitin (Xenopus | not stated) (UniProt P06897); experiment: fluorescence polarisation; stopped-flow; 20 nM ^TAMRAUb-NCP mixed with various concentrations of inactive (C91A) BAP1 or BAP1/ASXL1^DEU; 25 mM HEPES pH 7.5, 150 mM NaCl, 0.05% Tween-20, 0.5 mM TCEP; 20 °C; kobs against concentration by linear regression
[2] = target: BAP1/ASXL1^DEU complex (wild type) (human) (UniProt Q92560)
[3] = target: BRCA-1-associated protein 1 (BAP1), full length, wild type (human) (UniProt Q92560)
[4] = test system: BAP1 C91A;ASXL1 DEUBAD (ASXL1DEU); experiment: stopped-flow fluorescence polarization; details: 20 C, 20 nM NCP, histone H2A K119 mono-ubiquitinated by RING1B/BMI1, EMSA: 100 nM NCP, 4-12% Tris-glycine native gel, 4 C, FP: 25 mM HEPES pH 7.5, 150 mM NaCl, 0.05% Tween-20, 0.5 mM TCEP
[5] = target: BAP1/ASXL1DEU complex (human) (UniProt Q92560)

Kd [1]: 4 µM
Substance: BAP1 (C91A)/ASXL1^DEU complex (from UniProt Q92560 1-729; Q8IXJ9 238-390)

IC50 of inhibition of Ub-AMC hydrolysis by the BAP1/ASXL1^DEU complex, against BAP1 alone (fold lower than BAP1 alone) [2]: > 10
IC50 of inhibition of Ub-AMC hydrolysis by BAP1 (500 pM enzyme, 2 μM Ub-AMC, conjugate up to 200 μM) [3]: 45 μM
Substance: Non-hydrolyzable H2A-peptide ubiquitin conjugate (ubiquitin linked at the K119 position) (from UniProt P0CG48 1-75)

Substance: TAMRA-Ub-NCP (H2A K119ub, Widom 601 167 bp)
Kd [4]: 4 µM

Supplementary Table 3: IC50 of the non-hydrolyzable H2A ubiquitin conjugate for inhibition of Ub-AMC hydrolysis by BAP1/ASXL1DEU [5]: 3.3 µM
Substance: non-hydrolyzable H2A-peptide ubiquitin conjugate (H2A-K119) (from UniProt P0CG47 1-75)
